Measured values taken from the DeepSol protein solubility set.

assay: soluble on expression in E. coli; label from the status in PepcDB or PDB records

Sequence | soluble on expression in E. coli
MSLMKQNPILITGGTGTVGSRIASRLIKLGYRVRIASRKKGALADAEYVYFNWKYASSFTPALEQVKQIYLVAPVGVFDPAPYVLPFLKEAKRLGAKRVVMQSASVVSENGPVFGALHQAVREFPEWTVLRPSYFMQNFINVQHRMSIQTEGRITTASGEGKLGFIDADDIAETAVRALIDDVPHQTHHILTGPEALSYAEAAEIIGAAAGRRVEHVSISRSELQHKMEAGGLPADYAHFMAKLDEAISHGAEHRVTDTVKRVTGKEPRSLSEFAAAHAAYWTSFWTEEGGSHHHHHH | soluble
MSLNAKTVTELRSALLYMRAEDYHLWVNMGLALRELGETGRGLWMEWSATSEKFDSKDAAKKWNSFKPTGTSYQAVFAEAARHGWVNPGRSDAQLTGRRVQTQLKTSHKIKLEFAMSSDTETAKVSYLVDPFLPCKCVVGFFGRGGTAKSSFLATMAAMISQRASTLWVSAEELTDWIKARHIKTGGAPGTLQVFRGIETDEHSGQHIQVFGVYEHLDAALTMSNVAARDAGMPAVRLVVLDTAVALTIWPSGQGPNDDASVKRLLAYMQALAEKHDVTIAFIGHNNKRSSQNTEHFEDMVAGAGAWVTSPRVAFVHARDRREENSYVMRLAKPQLTPRFLVTYKTEPVHTLAQREDAPASVLCRVALGDEYIWGEDESASVFDAATGKDTEEDSGHVLEQRATTVQQVIDALVQMVHMTNAGQDVTRDMVHSALHRIVNGRRWKDVDDRLYMAQFQYRIAIVRGPNNQVLYRKMGPAEGHHHHHH | soluble
MSLNANRPIINLDLDLLRTFVAVADLNTFAAAAAAVCRTQSAVSQQMQRLEQLVGKELFARHGRNKLLTEHGIQLLGYARKILRFNDEACSSLMFSNLQGVLTIGASDESADTILPFLLSRISSVYPKLALDVRVKRNAYMVDMVKSQEVDLVVTTNQPHSLDCLNLRTSPTHWYCAAEYVLQRGEPVPLVLLDDPSPFRDMVLETLNAAGIPWRLAYVASTLPAVRAAVKAGLGVTARPVEMMSPDLRVLGAADGLPPLPDTEYLLCRDPNSQNELAMVIFHAMESYQNEGHHHHHH | soluble
MSLNDFRPNPSLLLETSWEVCNKQGGIYTVLTSRAHEMMKRHDGRIIFIGPLLTEQEDLPTDFENTVPAILEDWHRDAAPSLDLRYVCGSWRTPGSPPVVLVDFEPLHAQKATLYYEMWEHFGIQSDKGYGDYDEASLFGIAAAQTMHSLCEYLCPEDQPAIGIFNEWMLGMGLLYSKRKTPRLKTLFLTHATTTGRSIAGNNKALYAYMPGYNGDQMAAELGVEAKHGIEKAAAHQSDTFATVSELTAKECRQLLERDPMVLPNGFEPNFVPQGEEYERRRAEARKRLLHVAEHLTGKQLPADTLLIATSGRYEYRNKGIDLFIDAASEAGRSGKLRTPTLAFILVPAWVAGARADLQYLLNHPDPTEYKEKPLPYPFLTHWLHDIQEQTISKRLDESAGSAGEVSFIFVPCYLNRKDGIFGLGYYDLLIGMDLTVFPSYYEPWGYTPLESIAFGIPTVTTDLSGFGLWAMQERGSRNDFSTGVAVIKRTDDNYAEAVQAIADLLYRWPAESTDRTACRLAAMQTASHAEWRLFYNRYEEAYSELLSRDEGHHHHHH | soluble
MSLNEAGIVLLPKSRQLPALSMIDQNGAAVALDGLKDQWTLMFFGYTFCPDICPTTLAQIKQIRSELPTAAVERMRVVLVSVDPNRDTPQQLKEYLSYFDPQYIGLTAPVADIQKLANSVSIPFIPADTSKPNYFVDHSGNLALIGPDGTQRGFIRAPLNNQKLVKQLPRLLERDEGHHHHHH | soluble
MSLNEITVSLDVIIKNKNVMVSSLSVAKAFDRQHSHILRSIEDIKRDWDSLIQSKNGLNRNIIPLKSQGNKQVIFTDYFKESEYIAENGRLVKFFEMNRNGFMLLANSFNGKRILPIKLAFIERFDELEHITLEQAKETENRKNLNQAIKESPHFKPFYYSRFSDFLCQLITHNKYKTVKKLREDKGYYGKQFSKIPLKSMLDSEEDLKRLQKLENSIIAWLEIDYSFREIKAFLTKEKAQPLPTKEGHHHHHH | not soluble
MSLNFVAMDFETANQHPASACSLALVLVRESKIIDRFYTVINPQMAFDAQQVKVHDITAEDVAGAPTMAEVWPKIQPLFQPGMLVAAHNARFDCNVMKQSLARYGIAEPHYLVLDSLKVSRELEPGLDNYQLNTVSDLLGVELWHHHNALSDSEACAGILLKEEEKRGSELLKKFVYQVEGHHHHHH | not soluble
MSLNGDYQLTIDKMLESGVSSNPNQIINYSGKKTFTYKEFRERVYRLAKALISIGVKKGDTVAVIDWDTYVYLEAYFAVPMIGAVLHTVNVRYPQDLIYYTMDHAEDKYVIVRDEFVPILSKNKEAFYFIKGWIIYSEYGNVPDELSPKYIYDELMSKNYDIELPEISENDLATTFYTSGTTGIPKGVQFTHRQIVLHAISSGLALSDRPISLTADDVIMPLVPMFHVHAWGVPYMTIMSGRQYVLPGRYDFDHIIDLIAQENITVIAMVPSILYMIVTNPNVGKIAGRKIRAIIGGGALPEGLQKAAEKLGIMAISGYGLSETAPILTLATYNSDVKKLPLEEQKKYHLKTGIPIPLVQLRVIDDKWNDVPRDEKTIGEIVVRAPWLTSVYVKNKEGTEALWKGGWMHTGDLAVMDKFGYIKIVDREKDAVKSGGEFIPSLILEDAISACPGVVENAVVGKPHEKWGERPVAFYTGTAKPEEIRKCLEDIVRQGRIAKFWIPDDFINVKEFVKTSTGKIDKKVLREMLKKEGHHHHHH | soluble
MSLNHHPIIYLVDHQKDARAALSKLLSPLDVTIQCFASAESFMRQQISDDAIGMIIEAHLEDKKDSGIELLETLVKRGFHLPTIVMASSSDIPTAVRAMRASAADFIEKPFIEHVLVHDVQQIINGAKEGHHHHHH | soluble
MSLNHVRPWRNIHRRKSRQIMVGNVPVGGDAPISVQTMTNTITADAPATIAQVLRAAEAGADIVRVSVPDEASTRALKEIVAASPVPIVADIHFHYKRAIEAAEAGAACLRINPGNIGDASRVREVIKAARDHGCSMRIGVNAGSLEKHLLDKYGEPCPEAMVESGLDHIKILQDNDFHEFKISVKASDVFLAAAAYQALADATDAPIHLGITEAGGLTAGTVKSAVGLGNLLWSGIGDTLRVSLSADPVEEVKVGYEILKSLGLRHRGVTIISCPSCARQGFDVIKTVAELEDRLAHVTTSMSLSIIGCVVNGPGEALMTDIGFTGGGNGSGMVYLAGKQAHKLGSERMIDEIVSMVESRAAEIEAEKLAAAEAAE | not soluble
MSLNIFDIAKQNQEKAWQVIKNTNIIQIWEDAGAKINLVGSLRTGLLMKHRDIDFHIYSSPLNLTDSFQAMARLAENPSIKRIECANLLHTAEACIEWHAWYQNEENELWQMDMIHIREGSRYDGYFEKVAQRISEIMTDEIRETILRLKYETPETEKIIGVEYYQAVIRDGVRDYSGFKEWRKQHPVTGVVEWMPEGHHHHHH | soluble
MSLNKAILHDHLDGGLRPSTALELAKNDSYKPLLEIENISSFFDRSSSNSLEDYLEAFIHTTALMNKYENLERIAFEAAEDMHNCGINLYESRYAPLYSVNENLSIKDVLESINSGFKQAENLYGIQSGLILCGMRNDLKNVESVGEIAVKYKDLIIGFDIAGPELNFRPSLFSSTFKKVKNAGVNITIHAGEGDNVESIKDALENGAKRIGHGVRIIEDINLENNKLGETASLIRDKQIPLEICITSNIHTNMYKSYESHPIKDLVDLGFNISLNTDNRLMSNTDIVKEMNICKNIGIKNPENLLEMSASYSFLNEGHHHHHH | not soluble
MSLNKPLADRMRPIKLEDVVGQEHILSKNQILNKTLQAGHITNMIFYGPPGVGKTTVANIISNMTNKKLYKLNATNASIKDIQRIVAELDSFMTMNGVLLYLDEIQNFNKKQQQSLLEYIENGKITLIASTTENPYHYIYNAILSRSTVFEFKLLTKSNVIEGLKQVIKRINDEGKTLVEYEEEALDYIATASNGDLRRAMNALELAMYAAESENKEQVFLTIHIAQESTQKKVISYDKFGDQHYDILSAFQKSIRGTDPDAAIHYLARLVKAGDLNSICRRLLVIASEDIGLAYPTAITIVKSCVDAAMQVGFPEARINLAQATLVLATAPKSNSVIEAMDRALADLDQKDIGEIPTSLKDAHYKGASDLGRGVTYKYPHHYENNYIQQQYLPENIKNEKYYGSQNNKMEQRIFSYLEQLKKEGHHHHHH | not soluble
